Measurements published in patent US20240181022A1, “AMURINS LYSINS, AND LYSIN-ANTIMICROBIAL PEPTIDE (AMP) CONSTRUCTS ACTIVE AGAINST GRAM-NEGATIVE BACTERIA” (priority 2021, published 2024).
Converted amounts (≈) assume the structure as drawn. Where no end group is shown, it is not given here.

Tests used:
B. cenocepacia = assay: Checkerboard synergy assay with meropenem against B. cenocepacia; type: cell-based, Burkholderia cenocepacia; details: for MIC (dual agent): GN370 + meropenem; for FICmin / FICmin interpretation: GN370 with meropenem
Source text: (§1) In some embodiments, the Chp peptides disclosed herein or active fragments thereof reduce the minimum inhibitory concentration (MIC) of an antibiotic in the presence and/or absence of human serum, pulmonary surfactant, and/or sputum, including human sputum and human sputum from a cystic fibrosis patient. Any known method to assess MIC may be used. In some embodiments, a checkerboard assay is used to determine the effect of a Chp peptide or active fragment thereof on antibiotic concentration. The checkerboard assay is based on a modification of the CLSI method for MIC determination by broth microdilution (See Clinical and Laboratory Standards Institute (CLSI), CLSI. 2015. Methods for Dilution Antimicrobial Susceptibility Tests for Bacteria That Grow Aerobically; Approved Standard-10th Edition. Clinical and Laboratory Standards Institute, Wayne, PA, which is herein incorporated by reference in its entirety and Ceri et al. 1999. J. Clin. Microbiol. 37: 1771-1776, which is also herein incorporated by reference in its entirety).
(§2) Checkerboards are constructed by first preparing columns of e.g., a 96-well polypropylene microtiter plate, wherein each well has the same amount of antibiotic diluted 2-fold along the horizontal axis. […] The Chp peptide or active fragment thereof and antibiotic dilutions are then combined, so that each column has a constant amount of antibiotic and doubling dilutions of Chp peptide, while each row has a constant amount of Chp peptide and doubling dilutions of antibiotic. Each well thus has a unique combination of Chp peptide and antibiotic. Bacteria are added to the drug combinations at concentrations of 1×10^5 GFU/ml in CAA, for example, with or without human serum or pulmonary surfactant. […] Summation fractional inhibitory concentrations (ΣFICs) are calculated for each drug and the minimum ΣFIC value (ΣFICmin) is used to determine the effect of the Chp peptide/antibiotic combination.
The synergy of GN370 with meropenem was evaluated against 3 different strains of P. aeruginosa and three different strains of B. cenocepacia.

E. coli = assay: Checkerboard synergy assay (FICI) against E. coli; type: cell-based, Escherichia coli; details: E. coli ATCC 25922
Source text: as §1, §2
GN370 was further tested in combination with up to seven additional antibiotics (in addition to meropenem) against a variety of bacterial strains, including P. aeruginosa, A. baumannii, E. coli, E. cloacae, and K. pneumoniae. GN370 and the subject antibiotics were tested in a checkerboard assay format, and FICI values were determined, wherein ≤0.5 indicates synergy, >0.5-≤1 indicates additive; and >1 indicates indifferent.

P. aeruginosa [1] = assay: microbe, parasite or virus in culture; details: Pseudomonas aeruginosa
P. aeruginosa AR-769 [2] = assay: Repeat dose study of AM1 in the rabbit pulmonary infection model; type: in vivo; details: for Log CFU change v. pre-treatment (at 6 hours) / Mean Bacterial Density in Lung ± SD / Survival: rabbit
E. cloacae [3] = assay: MIC by broth microdilution against E. cloacae; type: cell-based, Enterobacter cloacae
K. pneumoniae = assay: MBEC against K. pneumoniae biofilm; type: cell-based, Klebsiella pneumoniae; details: MDR and XDR K. pneumoniae (11)
A. baumannii = assay: MBEC against A. baumannii biofilm; type: cell-based, Acinetobacter baumannii; details: MDR and XDR A. baumannii (22)
E. cloacae [4] = assay: MBEC against E. cloacae biofilm; type: cell-based, Enterobacter cloacae; details: MDR and XDR E. cloacae (14)
E. coli (ATCC 25922) = assay: microbe, parasite or virus in culture; type: cell-based, Escherichia coli
E. cloacae (ATCC 13047) = assay: microbe, parasite or virus in culture; type: cell-based, Enterobacter cloacae
P. aeruginosa AR-769 [5] = assay: GN370 in the rabbit pneumonia model; type: in vivo, New Zealand White rabbits
P. aeruginosa [6] = assay: SEM and TEM imaging of membrane damage; type: cell-based, Pseudomonas aeruginosa; details: prior to pore formation and lysis
Procedure: Additionally, the mechanism of action of both the Chp peptides and the lysins and/or lysin-AMP constructs disclosed herein may be evaluated through the use of Scanning Electron Microscopy (SEM) and Transmission Electron Microscopy (TEM) techniques. Due to the rapid permeabilization and depolarization of bacterial membranes when contacted with Chp peptides, as discussed above, membrane damage may be visualized through SEM and TEM. […] TEM and SEM images taken approximately 2 minutes after Chp peptide (8 μg/mL) contact with P. aeruginosa show the formation of multiple bulges on the bacterial membrane, as well as the appearance of pore formation and degradation of the cellular membrane. TEM and SEM images taken approximately 5 minutes after Chp peptide (8 μg/mL) contact with P. aeruginosa show continued formation of membrane bulges, along with degradation of the cellular membrane, condensation of electron-dense cytoplasmic material, formation of spheroplasts, and pore formation. TEM and SEM images taken approximately 20 minutes after Chp peptide (8 μg/mL) contact with P. aeruginosa show multiple instances of pore formation and the appearance of ghost cells, empty of intracellular content.

[7] = AM1 1 mg/kg i.v. every 24 hours (n = 7)
[8] = AM1 5 mg/kg i.v. every 24 hours (n = 8)
[9] = Enterobacter cloacae, AR Bank, N 7
[10] = Enterobacter cloacae, Weill Cornell, N 30
[11] = Enterobacter cloacae, all isolates, N 37

C[C@@H](O)[C@H]1C(=O)N2C(C(=O)O)=C(S[C@@H]3CN[C@H](C(=O)N(C)C)C3)[C@H](C)[C@H]12 [meropenem, reference compound]
MIC (alone) (B. cenocepacia; B. cenocepacia (CFS 2135)): 32 µg/mL | MIC (dual agent) (B. cenocepacia; B. cenocepacia (CFS 2135)): 32 µg/mL | MIC (alone) (B. cenocepacia; B. cenocepacia (CFS 2138)): 64 µg/mL | MIC (dual agent) (B. cenocepacia; B. cenocepacia (CFS 2138)): 64 µg/mL | MIC (alone) (B. cenocepacia; B. cenocepacia (CFS 2142)): 64 µg/mL | MIC (dual agent) (B. cenocepacia; B. cenocepacia (CFS 2142)): 32 µg/mL | FICI of the antibiotic with GN370 (E. coli): 0.5 | MIC (P. aeruginosa [1]): 64 µg/mL (≈ 167 µM)

MRLKMARRRYRLPRRRSRRLFSRTALRMHPRNRLRRIMRGGIRF [AM1]
mean bacterial density in lungs compared to the vehicle control group (P. aeruginosa AR-769 [2]; agent alone, intravenous, treatment from 6 hours post-infection): moderate to no CFU/g reduction | Log CFU change v. pre-treatment (at 6 hours) (P. aeruginosa AR-769 [2]; [7]): 1.56 Log CFU | Mean Bacterial Density in Lung ± SD (P. aeruginosa AR-769 [2]; [7]): 9.02 ± 1.49 Log CFU/lung | Survival (P. aeruginosa AR-769 [2]; [7]): 0% | Log CFU change v. pre-treatment (at 6 hours) (P. aeruginosa AR-769 [2]; [8]): 1.80 Log CFU | Mean Bacterial Density in Lung ± SD (P. aeruginosa AR-769 [2]; [8]): 8.98 ± 1.47 Log CFU/lung | Survival (P. aeruginosa AR-769 [2]; [8]): 37.5%

B1: GN370: lysin-AMP construct, SEQ ID NO: 149: MIDR, FIRL and NPTH moieties N-terminal to GN202 lysin (protein)
chain: MIDRFIRLNPTHGPRRPRRPGRRAPVRTSQRGIDLIKSFEGLRLSAYQDSVGVWTIGYGTTRGVTRYMTITVEQAERMLSNDIQRFEPELDRLAKVPLNQNQWDALMSFVYNLGAANLASSTLLDLLNKGDYQGAADQFPHWVNAGGKRLDGLVKRRAAERALFLEPLS
modifications: GN370 lysin
MIC (E. cloacae [3]; E. cloacae ATCC 13047 (head of Table 19)): 2 µg/mL | MIC (E. cloacae [3]; E. cloacae ATCC 29941): (MIC = 2 μg/mL) | MIC90 (E. cloacae [3]; E. cloacae clinical and resistant isolates): 4 µg/mL | MIC50 (E. cloacae [3]; [9]): 1 µg/mL | MIC90 (E. cloacae [3]; [9]): 4 µg/mL | MIC Range (E. cloacae [3]; [9]): 0.25 to 8 µg/mL | MIC50 (E. cloacae [3]; [10]): 2 µg/mL | MIC90 (E. cloacae [3]; [10]): 4 µg/mL | MIC Range (E. cloacae [3]; [10]): 0.25 to 8 µg/mL | MIC50 (E. cloacae [3]; [11]): 1 µg/mL | MIC90 (E. cloacae [3]; [11]): 4 µg/mL | MIC Range (E. cloacae [3]; [11]): 0.016 to 8 µg/mL | MBEC50 (K. pneumoniae): 1 µg/mL | MBEC90 (K. pneumoniae): 2 µg/mL | MBEC Range (K. pneumoniae): 0.5 to 4 µg/mL | Number of isolates at MBEC 0.5 μg/mL (K. pneumoniae): 3 | Number of isolates at MBEC 1 μg/mL (K. pneumoniae): 3 | Number of isolates at MBEC 2 μg/mL (K. pneumoniae): 4 | Number of isolates at MBEC 4 μg/mL (K. pneumoniae): 1 | MBEC50 (A. baumannii): 1 µg/mL | MBEC90 (A. baumannii): 2 µg/mL | MBEC Range (A. baumannii): 0.5 to 2 µg/mL | Number of isolates at MBEC 0.5 μg/mL (A. baumannii): 2 | Number of isolates at MBEC 1 μg/mL (A. baumannii): 12 | Number of isolates at MBEC 2 μg/mL (A. baumannii): 8 | MBEC50 (E. cloacae [4]): 1 µg/mL | MBEC90 (E. cloacae [4]): 2 µg/mL | MBEC Range (E. cloacae [4]): 0.5 to 2 µg/mL | Number of isolates at MBEC 0.5 μg/mL (E. cloacae [4]): 1 | Number of isolates at MBEC 1 μg/mL (E. cloacae [4]): 9 | Number of isolates at MBEC 2 μg/mL (E. cloacae [4]): 4 | MIC (alone) (B. cenocepacia; B. cenocepacia (CFS 2135)): 128 µg/mL | MIC (dual agent) (B. cenocepacia; B. cenocepacia (CFS 2135)): 64 µg/mL | FICmin (B. cenocepacia; B. cenocepacia (CFS 2135)): 1.5 | FICmin interpretation (B. cenocepacia; B. cenocepacia (CFS 2135)): (Indifferent) | MIC (alone) (B. cenocepacia; B. cenocepacia (CFS 2138)): 256 µg/mL | MIC (dual agent) (B. cenocepacia; B. cenocepacia (CFS 2138)): 128 µg/mL | FICmin (B. cenocepacia; B. cenocepacia (CFS 2138)): 1.5 | FICmin interpretation (B. cenocepacia; B. cenocepacia (CFS 2138)): (Indifferent) | MIC (alone) (B. cenocepacia; B. cenocepacia (CFS 2142)): 256 µg/mL | MIC (dual agent) (B. cenocepacia; B. cenocepacia (CFS 2142)): 128 µg/mL | FICmin (B. cenocepacia; B. cenocepacia (CFS 2142)): 1 | FICmin interpretation (B. cenocepacia; B. cenocepacia (CFS 2142)): (Additive) | synergy with meropenem (B. cenocepacia; three strains of B. cenocepacia): not against B. cenocepacia | change in MIC over 28-day serial passage (E. coli (ATCC 25922); E. coli (ATCC 25922)): No change | MIC (E. coli (ATCC 25922); E. coli ATCC 25922, target organism of serial passage study): 0.5 µg/mL | change in MIC over 28-day serial passage (E. cloacae (ATCC 13047); E. cloacae (ATCC 13047)): ≤ 2 fold | MIC (E. cloacae (ATCC 13047); E. cloacae ATCC 13047, target organism of serial passage study): 1 µg/mL | animals surviving until the end of the study (P. aeruginosa AR-769 [5]; GN370 at 3 mg/kg and 10 mg/kg alone or in addition to amikacin): 100% | decrease of mean bacterial densities in lungs vs vehicle controls (P. aeruginosa AR-769 [5]; amikacin-alone or GN370-alone): ~2.0 log10 CFU/g | membrane damage seen by TEM and SEM (P. aeruginosa [6]): more extensive and larger membrane blebs
